Test results from patent US20170137490A1, “PEPTIDES, AND METHODS AND APPARATUS UTILISING SAME” (The University of Manchester, priority 2014, published 2017).

Test system: human anti-PLA2R autoantibodies
Assay: Western blotting of PLA2R fragments with human anti-PLA2R autoantibodies
Assay type: binding

B1: mouse PLA2R: recombinant mouse PLA2R (R&D) (protein)
chain: QDLTHIQEPSLEWRDKGIFIIQSESLKTCIQAGKSVLTLENCKQPNEHMLWKWVSDDHLFNVGGSGCLGLNISALEQPLKLYECDSTLISLRWHCDRKMIEGPLQYKVQVKSDNTVVARKQIHRWIAYTSSGGDICEHPSRDLYTLKGNAHGMPCVFPFQFKGHWHHDCIREGQKEHLLWCATTSRYEEDEKWGFCPDPTSMKVFCDATWQRNGSSRICYQFNLLSSLSWNQAHSSCLMQGGALLSIADEDEEDFIRKHLSKVVKEVWIGLNQLDEKAGWQWSDGTPLSYLNWSQEITPGPFVEHHCGTLEVVSAAWRSRDCESTLPYICKRDLNHTAQGILEKDSWKYHATHCDPDWTPFNRKCYKLKKDRKSWLGALHSCQSNDSVLMDVASLAEVEFLVSLLRDENASETWIGLSSNKIPVSFEWSSGSSVIFTNWYPLEPRILPNRRQLCVSAEESDGRWKVKDCKERLFYICKKAGQVPADEQSGCPAGWERHGRFCYKIDTVLRSFEEASSGYYCSPALLTITSRFEQAFITSLISSVAEKDSYFWIALQDQNNTGEYTWKTVGQREPVQYTYWNTRQPSNRGGCVVVRGGSSLGRWEVKDCSDFKAMSLCKTPVKIWEKTELEERWPFHPCYMDWESATGLASCFKVFHSEKVLMKRSWREAEAFCEEFGAHLASFAHIEEENFVNELLHSKFNWTQERQFWIGFNRRNPLNAGSWAWSDGSPVVSSFLDNAYFEEDAKNCAVYKANKTLLPSNCASKHEWICRIPRDVRPKFPDWYQYDAPWLFYQNAEYLFHTHPAEWATFEFVCGWLRSDFLTIYSAQEQEFIHSKIKGLTKYGVKWWIGLEEGGARDQIQWSNGSPVIFQNWDKGREERVDSQRKRCVFISSITGLWGTENCSVPLPSICKRVKIWVIEKEKPPTQPGTCPKGWLYFNYKCFLVTIPKDPRELKTWTGAQEFCVAKGGTLVSIKSELEQAFITMNLFGQTTNVWIGLQSTNHEKWVNGKPLVYSNWSPSDIINIPSYNTTEFQKHIPLCALMSSNPNFHFTGKWYFDDCGKEGYGFVCEKMQDTLEHHVNVSDTSAIPSTLEYGNRTYKIIRGNMTWYAAGKSCRMHRAELASIPDAFHQAFLTVLLSRLGHTHWIGLSTTDNGQTFDWSDGTKSPFTYWKDEESAFLGDCAFADTNGRWHSTACESFLQGAICHVVTETKAFEHPGLCSETSVPWIKFKGNCYSFSTVLDSRSFEDAHEFCKSEGSNLLAIRDAAENSFLLEELLAFGSSVQMVWLNAQFDNNNKTLRWFDGTPTEQSNWGLRKPDMDHLKPHPCVVLRIPEGIWHFTPCEDKKGFICKMEAGIPAVTAQPEKGLSHS
recognition by human anti-PLA2R autoantibodies: fail to react
